Test results published in patent US6913917B2, “Anti-cocaine catalytic antibody” (priority 1996, dated 2005).
Substitutions are numbered along the chain they refer to. “Also recorded” adds a separate entry of the source.

B1: single chain Fv fragment: single chain Fv fragment for catalytic monoclonal antibody 3B9, with FLAG and 6×His (protein)
scFv: MEVQLQESGPELVKPSQSLSLTCTVTGNSITSDYAWTWIRQFPGNKLEWMGYIRHIYGTRYNPSLISRISITRDTSKNQFFLQLDSVTAEDTATYYCVRYHYYGSAYWGQGTLVTVSAGMQSGGGGSGGGGSGGAMDIVMTQDELSNPVTSGESVSISCRSSRSLLYRDGKTYLNWFLQRPGRPPQLLIYLMSTRSSGVSDRFSGSGSGTDFTLEISRVKAEDVGVYYCQHFVDYPFTFGSGTKLEIKRADGAPTVSIFFPPSLDYKDDDDKLEHHHHHH
modifications: FLAG and 6xHis tags; mouse
notes: single chain Fv fragment for catalytic monoclonal antibody 3B9, with FLAG and 6×His
B2: Mab 3B9: anti-cocaine catalytic monoclonal antibody elicited by TSA 1 (antibody, V domains shown)
VH: DVQLQESGPGLVKPSQSLSLTCTVTGNSITSDYAWTWIRQFPGNKLEWMGYIRHIYGTRYNPSLISRISITRDTSKNQFFLQLDSVTAEDTATYYCVRYHYYGSAYWGQGTLVTVSAAKTTP
VL: DIVMTQDELSNPVTSGESVSISCRSSRSLLYRDGKTYLNWFLQRPGRSPQLLIYLMSTRSSGVSDRFSGSGSGTDFTLEISRVKAEDVGVYYCQHFVDYPFTFGSGTKLEIKR
modifications: mouse
B3: Mab 2A10: anti-cocaine catalytic monoclonal antibody elicited by TSA 1 (antibody)
heavy: ELVKPSQSLSLTCTVTGYSITSDYAWNWIRQFPGNRLEWMGYIRYSGITRYNPSLKSRISITRDTSKNKFFLQLNSVTTEDTATYYCVRIHYYGYGNWGQGTTLTGLP
light: B2 VL with I2M, R27K, R32E, R47Q, Q50H, S60A, V90A, H95Q, D98E, K112R
modifications: mouse
B4: Mab 6A12: anti-cocaine catalytic monoclonal antibody elicited by TSA 1 (antibody)
heavy: B2 VH
light: B2 VL with I2M, S60A, C93F, V97E
modifications: mouse
B5: Mab 8G4E: anti-cocaine catalytic monoclonal antibody elicited by TSA 3 (antibody, V domains shown)
VH: VQLLESGAELVMPGASVKMSCKASGYTFTDHWMHWVKQRPGQGLEWIGTIDLSDTYTGYNQNFKGRATLTLDESSNTAYMQLSSLTSEDSAVYYCSRRGFDYWGQGTTLTVSS
VL: ELVMTQSPLTLSVTIGQPASISCKSSQSLLYSDGKTYLNWFFQRPGQSPKRLIYLVSKLDSGVPDRFTGSGSGKDFTLKISRVEAEDLGLYYCVQGYTFPLTFGAGTKLELKR
modifications: mouse
B6: Mab 15A10: mouse monoclonal anti-cocaine catalytic antibody elicited by TSA 1; most active (antibody, V domains shown)
VH: SGPELVKPGASVKVSCKASGYSFTDYNMYWVKQNHGESLEWIAYIDPSNGDTFYNQKFQGKATVTLDKSSSTAFMHLNSLTSEDSAVYYCARGGGLFAFWGQGTLVTVSA
VL: AVVTQESALTTSPGETVTLTCRSSTGTITSDNYANWVQEKPDHLFSGLIGVNNYRPPGVPARFSGSLTGDKAVLTITGAQTEDEAIYFCALWYSNHWVFGGGTKLTVLG
modifications: mouse
B7: Mab 8G4G: anti-cocaine catalytic monoclonal antibody elicited by TSA 3 (antibody)
heavy: VQLLESGAELVKPGASVELSCRTSGYTFTTYYIYWVKQRPGQGLEWIGGMNPGNGVTYFNEKFKNRATLTVDRSSSIAYMQLSSLTSEDSAVYYCTRVGNSLLTGAEGLWSLSLQ
light: TRAGETVTLTCRSSSGTITANNYGSWVQEKPDHLFTGLIGVSNNRGPGVPARFSGSLIGDKAVLTITGGQTEDEAIYFCALWNSNHFVFGGGTKLTVLGQ
modifications: mouse
B8: Mab 9A3: anti-cocaine catalytic monoclonal antibody elicited by TSA 1 (antibody, V domains shown)
VH: SGPELVKPGASVKLSCKASGYPFTDYNMYWVKQSHGKSLEWIGYIDPSNGGIFYNQKFKGRATLTVDKSSNTAFMHLNSLTSEDSAVYYCARGGGLFAYWGQGTLVTVSE
VL: TWPGETVTLTCRSSTGTITTSNYANWVQEKPDHLFSGLIGINNNRPPGVPARFSGSLIGDKAVLTITGAQTEDEAIYFCALWYSNHWVFGGGTKLTVLG
modifications: mouse

Tests used:
Mab 15A10 = assay: Inhibition of Mab 15A10 cocaine hydrolysis; format: biochemical, Mouse; settings: for inhibition of Mab 15A10: at 1 mM; for Ki: read-out: inhibition constant (K1 / Ki) for Mab 15A10
catalytic mAb = assay: Inhibition of the activity of the catalytic mAbs; format: biochemical, mouse
[1] = system: cocaine esterase activity present in serum; assay: Inhibition of cocaine esterase activity present in serum; format: biochemical; settings: 150 μM
[2] = system: conscious, unrestrained animals; settings: continuously infused cocaine 1 mg/kg/min, i.v. catecholamine infusion; previous work (19); cited from earlier work
[3] = inhalation of vaporized cocaine; cited from earlier work
[4] = Elisa analysis of single chain Fv fragment; format: binding; settings: scFv of Mab 3B9
[5] = Hydrolysis of 3H-cocaine by Mab's (kinetic measurements); settings: for Km: Michaelis constant, pH that optimized kcat/ko: in general pH 7.8, 6A12 pH 7.4, 2A10 pH 7.0; for krat: catalytic rate constant (turnover rate), same pH as Km; for kcat/ko: rate acceleration over spontaneous rate (kcat/kuncat)
[6] = ELISA with TSA 1, 2, and 3 bound to ovalbumin; format: binding
Text: The rationale for varying the tether sites of TSA to carrier protein (BSA) was to expose unique epitopes and elect catalytic antibodies specific to each immunogen. In order to assess binding specificity, the catalytic antibodies were examined by ELISA with TSA 1, 2, and 3 bound to ovalbumin.

LD90 cocaine = assay: Survival after LD90 cocaine infusion; format: in vivo, rat; settings: for survival to LD90 cocaine infusion: cocaine 16 mg/kg at 1 mg/kg/min
[7] = Plasma concentrations at death by HPLC; format: in vivo, rat; settings: compared to saline or Mab 1C1 control groups, antibody 100 mg/kg
[8] = system: cocaine-induced convulsions or death; settings: antibody 100 mg/kg
[9] = cocaine 1 mg/kg/min until death

Molecule	binding specificity by ELISA [6]	Km [5]	krat [5]	kcat/ko [5]	further results
COC(=O)[C@@H]1[C@H]2CC[C@@H](C[C@@H]1O)N2C [ecgonine methyl ester]	–	–	–	–	inhibition of Mab 15A10 (Mab 15A10): not inhibited; also recorded: not observed
COC(=O)C1C(OP(=O)(O)c2ccccc2)CC2CCC1N2C (stereo not shown) [free TSA 4]	–	–	–	–	inhibition of Mab 15A10 catalytic activity (Mab 15A10; free TSA 50 μM, bioreactor-produced Mab 15A10): completely inhibited; Ki (Mab 15A10): 0.23 µM; inhibition of all catalytic antibodies (enzymes) (catalytic mAb; 50 μM): inhibited completely; inhibition of cocaine esterase activity present in serum [1]: did not inhibit
COC(=O)[C@H]1[C@@H](OC(=O)c2ccccc2)C[C@@H]2CC[C@H]1N2C [cocaine]	–	–	–	–	LD50 [2]: 10 mg/kg; LD90 [2]: 16 mg/kg; peak pulmonary vein concentration [3]: 10 to 30 µM
CNC(=O)Oc1ccc2c(c1)[C@]1(C)CCN(C)[C@@H]1N2C [eserine, reference compound]	–	–	–	–	inhibition of the activity of any catalytic mAb (catalytic mAb; 1 mM): did not inhibit
O=C(O)CNC(=O)c1ccccc1 [hippuric acid]	–	–	–	–	inhibition of Mab 15A10 (Mab 15A10): did not inhibit; also recorded: not an inhibitor
CN1[C@H]2CC[C@@H]1[C@@H](C(=O)O)[C@@H](OC(=O)c1ccccc1)C2 [benzoyl ecgonine]	–	–	–	–	inhibition of Mab 15A10 (Mab 15A10): no inhibition
O=C(O)c1ccccc1 [benzoic acid]	–	–	–	–	Kd (Mab 15A10; read-out: Kd, inhibition of Mab 15A10 in vitro): ~250 µM; Ki (Mab 15A10): 250 µM
B1	–	–	–	–	binding activity by Elisa [4]: demonstrated binding activity; catalytic activity (release of ^3H-benzoic acid from ^3H-phenyl-cocaine) ([5]; result in words): Enzymatic activity was confirmed
B2	bound all three conjugates	490 µM	0.11 min⁻¹	1100	–
B3	bound all three conjugates	3000 µM	0.011 min⁻¹	420	–
B4	bound all three conjugates	1020 µM	0.072 min⁻¹	880	–
B5	bound only TSA-1 and 3	1200 µM	0.12 min⁻¹	1100	–
B6	bound only TSA-1 and 3	220 µM	2.3 min⁻¹	2.3×10^4	mean cocaine dose at death (LD90 cocaine; antibody 5 mg/kg): 8.2 ± 1.0 mg/kg; cocaine dose at death of the single non-survivor (LD90 cocaine; antibody 15 mg/kg): 15.9 mg/kg; survival to LD90 cocaine infusion (LD90 cocaine; antibody 15 mg/kg i.v.): Four of five; survival to LD90 cocaine infusion (LD90 cocaine; antibody 50 mg/kg i.v.): all of five; effect on survival / protection from cocaine toxicity (LD90 cocaine; result in words, p<0.001): dose-dependent increase in survival; also recorded: significant; increase in plasma ecgonine methyl ester [7]: > 10 fold; kcat (activity) remaining after repetitive turnover ([5]; after 6 hrs and >200 turnovers, of baseline): > 95%; potency relative to the first catalytic antibodies ([5]; at sub-saturating concentrations of cocaine): 100 fold; kcat/ko ([5]; listed as 15A10): 23000; increase of mean lethal dose of cocaine over controls [8]: over 3 fold; dose of cocaine at seizure (average) [8, 9]: 32.5 mg/kg; mean lethal dose of cocaine [8, 9]: 37.0 mg/kg
B7	bound only TSA-1 and 3	530 µM	0.60 min⁻¹	5500	–
B8	bound only TSA-1 and 3	270 µM	0.015 min⁻¹	140	–
